# Experimental data published in publication PMC6517596.
# Target: KLF4 (Homo sapiens) (UniProt O43474)
# Experiment: DPI-ELISA competition
# Settings: KLF4 0-150 ng against 80 ng Sp1; 2 pmol DNA; EMSA: 2 ug nuclear extract or 50 ng KLF4, 30 min on ice, 6% native PAGE; DPI-ELISA: 2 pmol biotin-DNA, 2 h; buffer, salt and pH not stated
# UniProt O43474, sequence (O43474 whole entry): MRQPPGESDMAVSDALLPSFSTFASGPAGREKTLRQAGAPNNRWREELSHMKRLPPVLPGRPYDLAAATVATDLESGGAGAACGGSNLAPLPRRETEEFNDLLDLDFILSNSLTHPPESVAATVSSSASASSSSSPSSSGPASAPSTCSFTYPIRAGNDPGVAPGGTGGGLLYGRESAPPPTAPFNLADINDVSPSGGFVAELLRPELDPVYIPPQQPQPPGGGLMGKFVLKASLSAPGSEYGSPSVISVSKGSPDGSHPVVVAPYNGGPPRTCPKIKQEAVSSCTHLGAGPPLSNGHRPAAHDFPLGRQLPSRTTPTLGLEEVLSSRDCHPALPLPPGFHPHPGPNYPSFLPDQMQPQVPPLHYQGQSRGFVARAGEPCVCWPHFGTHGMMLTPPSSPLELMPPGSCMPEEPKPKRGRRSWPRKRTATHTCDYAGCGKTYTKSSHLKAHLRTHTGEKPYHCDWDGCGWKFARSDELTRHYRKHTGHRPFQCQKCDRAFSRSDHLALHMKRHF
sequence,measurement,value
GGTCCCAGAGCACGAGCCCCCGCCCCCGGTGGCCCC (double strand) [CPI-17 GC box 2 biotinylated],IC50,29 ng
